Source: the RNAGym collection of RNA variant scans (doi:10.1093/molbev/msab373)

B1: Azoarcus group I ribozyme (parent)
chain: GUGCCUUGCGCCGGGAAACCACGCAAGGGAUGGUGUCAAAUUCGGCGAAACCUAAGCGCCCGCCCGGGCGUAUGGCAACGCCGAGCCAAGCUUCGGCGCCUGCGCCGAUGAAGGUGUAGAGACUAGACGGCACCCACCUAAGGCAAACGCUAUGGUGAAGGCAUAGUCCAGGGAGUGGCGAAAGUCACACAAACCGG

Variants of: B1
Assay: reverse-splicing fitness (ratio to wild type); higher = more active; in vitro selection; Mg2+ level not given
Summary of the method: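 An in vitro group I ribozyme library with randomized positions was T7-transcribed and gel-purified. In triplicate, 10 pmol RNA in EPPS pH 7.5 was reacted with 50 pmoles of a 30-nt RNA substrate for 1 h at 37 °C across several added MgCl2 levels (1–48 mM), then stopped with EDTA. Products were reverse transcribed from a substrate-complementary primer, PCR-amplified and sequenced (HiSeq 4000). Fitness is a variant's read proportion after selection over that before, normalised to wild type.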

Row | Variant | reverse-splicing fitness
1 | GUGCCUUGCGCCGGGAAACCACGCAAGGGAUGGUGUCAAAUUCGGCGAAACCUAAGCGCCCGCCCGGGCGUAUGGCAACGCUGAGCCAAGCUUCGGCGCCUGCGCCGAUGCAGGUGUAGUGACUAGACGGCACCCACCUAAGGCGAACGAUAUGGUGAAGGCAUAGUCGAGGGAGUGGCGAAAGUCACACAAACCGG [C82U A111C A120U A145G C150A C169G] | 0.00517
2 | GUGCCUUGCGCCGGGAAACCACGCAAGGGAUGGUGUCAAAUUCGGCGAAACCUAAGCGCCCGCCCGGGCGUAUGGCAACGCUGAGCCAAGCUUCGGCGCCUGCGCCGAUGCAGGUGUAGUGACUAGACGGCACCCACCUAAGGCGAACGAUAUGGUGAAGGCAUAGUCUAGGGAGGGGCGAAAGUCACACAAACCGG [C82U A111C A120U A145G C150A C169U U176G] | 0.00293
3 | GUGCCUUGCGCCGGGAAACCACGCAAGGGAUGGUGUCAAAUUCGGCGAAACCUAAGCGCCCGCCCGGGCGUAUGGCAACGCUGAGCCAAGCUUCGGCGCCUGCGCCGAUGCAGGUGUAGUGACUAGACGGCACCCACCUAAGGCGAACGAUAUGGUGAAGGCAUAGUCUAGGGAGCGGCGAAAGUCACACAAACCGG [C82U A111C A120U A145G C150A C169U U176C] | 0.00385
4 | GUGCCUUGCGCCGGGAAACCACGCAAGGGAUGGUGUCAAAUUCGGCGAAACCUAAGCGCCCGCCCGGGCGUAUGGCAACGCUGAGCCAAGCUUCGGCGCCUGCGCCGAUGCAGGUGUAGUGACUAGACGGCACCCACCUAAGGCGAACGAUAUGGUGAAGGCAUAGUCUAGGGAGAGGCGAAAGUCACACAAACCGG [C82U A111C A120U A145G C150A C169U U176A] | 0.00566
5 | GUGCCUUGCGCCGGGAAACCACGCAAGGGAUGGUGUCAAAUUCGGCGAAACCUAAGCGCCCGCCCGGGCGUAUGGCAACGCUGAGCCAAGCUUCGGCGCCUGCGCCGAUGCAGGUGUAGUGACUAGACGGCACCCACCUAAGGCGAACGAUAUGGUGAAGGCAUAGUCGAGGGAGAGGCGAAAGUCACACAAACCGG [C82U A111C A120U A145G C150A C169G U176A] | 0.00613
6 | GUGCCUUGCGCCGGGAAACCACGCAAGGGAUGGUGUCAAAUUCGGCGAAACCUAAGCGCCCGCCCGGGCGUAUGGCAACGCUGAGCCAAGCUUCGGCGCCUGCGCCGAUGCAGGUGUAGUGACUAGACGGCACCCACCUAAGGCGAACGAUAUGGUGAAGGCAUAGUCGAGGGAGCGGCGAAAGUCACACAAACCGG [C82U A111C A120U A145G C150A C169G U176C] | 0.00549
7 | GUGCCUUGCGCCGGGAAACCACGCAAGGGAUGGUGUCAAAUUCGGCGAAACCUAAGCGCCCGCCCGGGCGUAUGGCAACGCUGAGCCAAGCUUCGGCGCCUGCGCCGAUGCAGGUGUAGUGACUAGACGGCACCCACCUAAGGCGAACGAUAUGGUGAAGGCAUAGUCGAGGGAGGGGCGAAAGUCACACAAACCGG [C82U A111C A120U A145G C150A C169G U176G] | 0.00246
8 | GUGCCUUGCGCCGGGAAACCACGCAAGGGAUGGUGUCAAAUUCGGCGAAACCUAAGCGCCCGCCCGGGCGUAUGGCAACGCUGAGCCAAGCUUCGGCGCCUGCGCCGAUGCAGGUGUAGUGACUAGACGGCACCCACCUAAGGCGAACGCUAUGGUGAAGGCAUAGUCCAGGGAGUGGCGAAAGUCACACAAACCGG [C82U A111C A120U A145G] | 0.0248
9 | GUGCCUUGCGCCGGGAAACCACGCAAGGGAUGGUGUCAAAUUCGGCGAAACCUAAGCGCCCGCCCGGGCGUAUGGCAACGCUGAGCCAAGCUUCGGCGCCUGCGCCGAUGCAGGUGUAGUGACUAGACGGCACCCACCUAAGGCGAACGGUAUGGUGAAGGCAUAGUCAAGGGAGAGGCGAAAGUCACACAAACCGG [C82U A111C A120U A145G C150G C169A U176A] | 0.0114
10 | GUGCCUUGCGCCGGGAAACCACGCAAGGGAUGGUGUCAAAUUCGGCGAAACCUAAGCGCCCGCCCGGGCGUAUGGCAACGCUGAGCCAAGCUUCGGCGCCUGCGCCGAUGCAGGUGUAGUGACUAGACGGCACCCACCUAAGGCGAACGGUAUGGUGAAGGCAUAGUCAAGGGAGCGGCGAAAGUCACACAAACCGG [C82U A111C A120U A145G C150G C169A U176C] | 0.00788
11 | GUGCCUUGCGCCGGGAAACCACGCAAGGGAUGGUGUCAAAUUCGGCGAAACCUAAGCGCCCGCCCGGGCGUAUGGCAACGCUGAGCCAAGCUUCGGCGCCUGCGCCGAUGCAGGUGUAGUGACUAGACGGCACCCACCUAAGGCGAACGGUAUGGUGAAGGCAUAGUCAAGGGAGGGGCGAAAGUCACACAAACCGG [C82U A111C A120U A145G C150G C169A U176G] | 0.00495
12 | GUGCCUUGCGCCGGGAAACCACGCAAGGGAUGGUGUCAAAUUCGGCGAAACCUAAGCGCCCGCCCGGGCGUAUGGCAACGCUGAGCCAAGCUUCGGCGCCUGCGCCGAUGCAGGUGUAGUGACUAGACGGCACCCACCUAAGGCGAACGGUAUGGUGAAGGCAUAGUCCAGGGAGUGGCGAAAGUCACACAAACCGG [C82U A111C A120U A145G C150G] | 0.00805
13 | GUGCCUUGCGCCGGGAAACCACGCAAGGGAUGGUGUCAAAUUCGGCGAAACCUAAGCGCCCGCCCGGGCGUAUGGCAACGCUGAGCCAAGCUUCGGCGCCUGCGCCGAUGCAGGUGUAGUGACUAGACGGCACCCACCUAAGGCGAACGAUAUGGUGAAGGCAUAGUCCAGGGAGUGGCGAAAGUCACACAAACCGG [C82U A111C A120U A145G C150A] | 0.00865
14 | GUGCCUUGCGCCGGGAAACCACGCAAGGGAUGGUGUCAAAUUCGGCGAAACCUAAGCGCCCGCCCGGGCGUAUGGCAACGCUGAGCCAAGCUUCGGCGCCUGCGCCGAUGCAGGUGUAGUGACUAGACGGCACCCACCUAAGGCGAACGGUAUGGUGAAGGCAUAGUCGAGGGAGUGGCGAAAGUCACACAAACCGG [C82U A111C A120U A145G C150G C169G] | 0.00651
15 | GUGCCUUGCGCCGGGAAACCACGCAAGGGAUGGUGUCAAAUUCGGCGAAACCUAAGCGCCCGCCCGGGCGUAUGGCAACGCUGAGCCAAGCUUCGGCGCCUGCGCCGAUGCAGGUGUAGUGACUAGACGGCACCCACCUAAGGCGAACGGUAUGGUGAAGGCAUAGUCAAGGGAGUGGCGAAAGUCACACAAACCGG [C82U A111C A120U A145G C150G C169A] | 0.00772
